Assay results: PMC11975290, “Two redox-responsive LysR-type transcription factors control the oxidative stress response of Agrobacterium tumefaciens” (Nucleic Acids Research, 2025)

Tests used:
[1] = molecular target: T1, His-ArgP (Escherichia coli (ASKA collection)) (UniProt P0A8S1); experiment: EMSA; conditions: Radioactive EMSA: 20 min at 30 C, 6% polyacrylamide gel, buffer by reference (Müller et al.); ArgP agarose EMSA: 10 mM Tris-HCl pH 8.5, 10 mM MgCl2, 100 mM …
T1 sequence: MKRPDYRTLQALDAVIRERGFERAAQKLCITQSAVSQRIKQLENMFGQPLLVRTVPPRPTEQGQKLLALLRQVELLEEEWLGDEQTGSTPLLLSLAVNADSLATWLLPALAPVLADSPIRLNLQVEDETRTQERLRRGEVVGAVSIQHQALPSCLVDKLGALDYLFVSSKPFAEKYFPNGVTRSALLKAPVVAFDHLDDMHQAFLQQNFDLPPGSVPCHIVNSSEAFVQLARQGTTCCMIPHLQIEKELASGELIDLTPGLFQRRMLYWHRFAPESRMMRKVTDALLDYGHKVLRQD

[2] = molecular target: T2, LsrB-His (Agrobacterium tumefaciens) (UniProt A9CI74); experiment: EMSA; conditions: Radioactive EMSA: 20 min at 30 C, 6% polyacrylamide gel, buffer by reference (Müller et al.); ArgP agarose EMSA: 10 mM Tris-HCl pH 8.5, 10 mM MgCl2, 100 mM …
T2 sequence: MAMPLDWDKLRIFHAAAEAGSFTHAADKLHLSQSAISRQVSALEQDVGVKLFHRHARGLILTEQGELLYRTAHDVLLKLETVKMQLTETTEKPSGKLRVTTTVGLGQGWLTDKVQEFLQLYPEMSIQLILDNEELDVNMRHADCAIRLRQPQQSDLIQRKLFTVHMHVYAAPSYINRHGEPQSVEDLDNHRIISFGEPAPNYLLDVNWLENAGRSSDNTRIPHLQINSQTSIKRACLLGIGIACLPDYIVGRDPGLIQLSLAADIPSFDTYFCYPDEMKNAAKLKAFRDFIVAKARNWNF

[3] = molecular target: the molecule itself; experiment: cryo-EM structure; single-particle cryo-EM of purified LsrB (1.2 mg/ml), without DNA; DNA-binding domain excluded from the analysis; AlphaFold 3 model of the SBD dimer rigid-body fitted into the 3.9 Å map

Q: With “CGCTTCTGTGGTTTTAGTTTCGGAAACCATACAAAAATGCTATCCATCTTAAAAATGAGGCGCGATTGTAGCAGACGATTGGCAATCCTTCCGGCAGAAATACACGGTTATAAGACACCTTCATGATCGCCCAGGGATTATAAGTAAAGCAGCCAATCTCTTTTCTGGCGAATGCATGCTGAAGGCGCTGCGTCACGAAATCGACACAGCACCAGCATGTTCTTGTACAGCAACTTAACGCGGCACATTTGCGGGATCGCAATAGTCCAGAAAGCG (double strand) [lysP promoter 276 bp]” as the molecule, how does the binding [1] read?
A: binds

Q: Which binding [2] does the source give for “GCGGCTAAACGTCTTTTCGCTGGGGATGGCGGAGAAGCCGACAATCCACCTTAGGTTTTGGAGAACACGAAAGATGAAATTTAATCGCAGACATATCGCACTGGCCGCTTTGGTCTCGACGGGCCTGGTCACGCAGGCTTCTGCCGCTGATGATG (double strand) [ampC promoter 155 bp]” here?
A: no binding

B1: LsrB (LysR-type symbiosis regulator B) of Agrobacterium tumefaciens (natural protein)
chain: MAMPLDWDKLRIFHAAAEAGSFTHAADKLHLSQSAISRQVSALEQDVGVKLFHRHARGLILTEQGELLYRTAHDVLLKLETVKMQLTETTEKPSGKLRVTTTVGLGQGWLTDKVQEFLQLYPEMSIQLILDNEELDVNMRHADCAIRLRQPQQSDLIQRKLFTVHMHVYAAPSYINRHGEPQSVEDLDNHRIISFGEPAPNYLLDVNWLENAGRSSDNTRIPHLQINSQTSIKRACLLGIGIACLPDYIVGRDPGLIQLSLAADIPSFDTYFCYPDEMKNAAKLKAFRDFIVAKARNWNF
notes: LsrB, LysR-type transcriptional regulator of Agrobacterium tumefaciens (atu2186); also called Atu2186; LsrB^His; source: E. coli BL21 (DE3), purified (His-tagged or Strep-tagged; Strep-Tactin resin for the Strep-tagged form)
Q: With B1 as the molecule, how does the “stoichiometry N” value [3] read?
A: 2
